We go through two molecules from patent publication US11912970B2, “Universal microfluidic culture system to analyze and control cell dynamics” (The University of Chicago, priority 2017, dated 2024).

Format in all cases: cell-based, mouse
One assay concerns mice HSCs. Kind of assay: M-CSF induced differentiation of mice HSCs on chip. Conditions: media replacement through the buffering layer. From the text: FIG. 11B(I) depicts the culture of mice HSCs cells in suspension mode, and (II) depicts the differentiation of mice HSCs cells by introducing M-CSF differentiation media.
Murine hematopoietic stem cells (HSC) are isolated by FACSAria III flow cytometer (BD Biosciences) as Lin−/c-Kit+/Sca-1+/CD48−/CD150+/CD34− (lineage, Lin: CD3e/CD11b/CD19/CD41/B220/Gr-1/Ter-119), which are approximately 50% pure HSCs. Macrophage colony-stimulating factor (M-CSF), a myeloid cytokine released during infection and inflammation, is employed to induce HSCs differentiation. Human CD34+ cells were isolated from mononuclear cells using EasySepTM human CD34 positive selection kit (Stemcell Technologies, Vancouver, BC, Canada). CD34+CD38−CD45RA−CD90+CD49f+ HSCs were sorted using a FACSAria III flow cytometer (BD Biosciences). Pro- and anti-inflammatory cytokines including TNF, IFN[…], IL-6, IP10 and MCP-1 are introduced into the cellular environment as single ligand and in combination. Embryonic NSCs with Hes-GFP and Dcx-RFP reporters were isolated at embryonic day 13.5 from a transgenic mice carrying Hes-GFP and Dcx-RFP using standard protocol (Woo, et al., 2009; Basak, et al., 2007). The resulting primary cells were verified to carry both Hes5-GFP and Dcx-RFP after isolation and allowed to grow for few passages before use in the experiments (Giachino, et al., 2009). […]

Assay [1] deals with Hes5-GFP expression in NSCs. The assay can be described thus: NSCs Hes5-GFP expression under sequential ligand inputs (permutation test and decision tree analysis). Conditions: sequential input. The source says: (§1) Murine hematopoietic stem cells (HSC) are isolated by FACSAria III flow cytometer (BD Biosciences) as Lin−/c-Kit+/Sca-1+/CD48−/CD150+/CD34− (lineage, Lin: CD3e/CD11b/CD19/CD41/B220/Gr-1/Ter-119), which are approximately 50% pure HSCs. Macrophage colony-stimulating factor (M-CSF), a myeloid cytokine released during infection and inflammation, is employed to induce HSCs differentiation. Human CD34+ cells were isolated from mononuclear cells using EasySepTM human CD34 positive selection kit (Stemcell Technologies, Vancouver, BC, Canada). CD34+CD38−CD45RA−CD90+CD49f+ HSCs were sorted using a FACSAria III flow cytometer (BD Biosciences). […]
(§2) For image acquisition, a Nikon Ti-ECLIPSE microscope with an automated translation stage and a digital CMOS camera (ORCA-Flash 4.0, Hamamatsu, Japan) was used. […] Bright field and fluorescence images were acquired and analyzed using a customized MATLAB program (Mathworks, […]). The algorithm extracts single cell traces including position, nuclear and cytoplasm fluorescence level. For example, the 3T3 cell nuclear area in each image is identified via the fluorescent nuclear marker GFP, and then the mean value of the nuclear intensity of the p65-DsRed marker is measured, and plotted as a function of time. […]

The test system of assay [2] is NSCs. The assay can be described thus: NSCs proliferation (cell number) under combinatorial ligand inputs (permutation test and decision tree analysis). Conditions: combinatorial input, decision tree, without PACAP.
Source text: as §1, §2

In assay [3] the test system is NSCs. Kind of assay: NSCs proliferation (cell number) under sequential ligand inputs (permutation test and decision tree analysis). To be noted: sequential input, ligand added at day 1.
Source text: as §1, §2

B1: M-CSF: myeloid cytokine released during infection and inflammation, employed to induce HSCs differentiation (protein, UniProt P09603 33-554, looked up)
Macrophage colony-stimulating …: EEVSEYCSHMIGSGHLQSLQRLIDSQMETSCQITFEFVDQEQLKDPVCYLKKAFLLVQDIMEDTMRFRDNTPNAIAIVQLQELSLRLKSCFTKDYEEHDKACVRTFYETPLQLLEKVKNVFNETKNLLDKDWNIFSKNCNNSFAECSSQDVVTKPDCNCLYPKAIPSSDPASVSPHQPLAPSMAPVAGLTWEDSEGTEGSSLLPGEQPLHTVDPGSAKQRPPRSTCQSFEPPETPVVKDSTIGGSPQPRPSVGAFNPGMEDILDSAMGTNWVPEEASGEASEIPVPQGTELSPSRPGGGSMQTEPARPSNFLSASSPLPASAKGQQPADVTGTALPRVGPVRPTGQDWNHTPQKTDHPSALLRDPPEPGSPRISSLRPQGLSNPSTLSAQPQLSRSHSSGSVLPLGELEGRRSTRDRRSPAEPEGGPASEGAARPLPRFNSVPLTDTGHERQSEGSFSPQLQESVFHLLVPSVILVLLAVGGLLFYRWRRRSHQEPQRADSPLEQPEGSPLTQDDRQVELPV
As to B1, in the assay with mice HSCs, the “response of HSCs to ligand input” value is “instantaneous response”.

B2: Jagged: signaling ligand whose receptor is highly expressed during mouse forebrain development (protein, UniProt Q9QXX0 34-1218, looked up)
Protein jagged-1: QFELEILSMQNVNGELQNGNCCGGVRNPGDRKCTRDECDTYFKVCLKEYQSRVTAGGPCSFGSGSTPVIGGNTFNLKASRGNDRNRIVLPFSFAWPRSYTLLVEAWDSSNDTIQPDSIIEKASHSGMINPSRQWQTLKQNTGIAHFEYQIRVTCDDHYYGFGCNKFCRPRDDFFGHYACDQNGNKTCMEGWMGPDCNKAICRQGCSPKHGSCKLPGDCRCQYGWQGLYCDKCIPHPGCVHGTCNEPWQCLCETNWGGQLCDKDLNYCGTHQPCLNRGTCSNTGPDKYQCSCPEGYSGPNCEIAEHACLSDPCHNRGSCKETSSGFECECSPGWTGPTCSTNIDDCSPNNCSHGGTCQDLVNGFKCVCPPQWTGKTCQLDANECEAKPCVNARSCKNLIASYYCDCLPGWMGQNCDININDCLGQCQNDASCRDLVNGYRCICPPGYAGDHCERDIDECASNPCLNGGHCQNEINRFQCLCPTGFSGNLCQLDIDYCEPNPCQNGAQCYNRASDYFCKCPEDYEGKNCSHLKDHCRTTTCEVIDSCTVAMASNDTPEGVRYISSNVCGPHGKCKSQSGGKFTCDCNKGFTGTYCHENINDCESNPCKNGGTCIDGVNSYKCICSDGWEGAHCENNINDCSQNPCHYGGTCRDLVNDFYCDCKNGWKGKTCHSRDSQCDEATCNNGGTCYDEVDTFKCMCPGGWEGTTCNIARNSSCLPNPCHNGGTCVVNGDSFTCVCKEGWEGPICTQNTNDCSPHPCYNSGTCVDGDNWYRCECAPGFAGPDCRININECQSSPCAFGATCVDEINGYQCICPPGHSGAKCHEVSGRSCITMGRVILDGAKWDDDCNTCQCLNGRVACSKVWCGPRPCRLHKSHNECPSGQSCIPVLDDQCFVRPCTGVGECRSSSLQPVKTKCTSDSYYQDNCANITFTFNKEMMSPGLTTEHICSELRNLNILKNVSAEYSIYIACEPSLSANNEIHVAISAEDIRDDGNPVKEITDKIIDLVSKRDGNSSLIAAVAEVRVQRRPLKNRTDFLVPLLSSVLTVAWVCCLVTAFYWCVRKRRKPSSHTHSAPEDNTTNNVREQLNQIKNPIEKHGANTVPIKDYENKNSKMSKIRTHNSEVEEDDMDKHQQKVRFAKQPVYTLVDREEKAPSGTPTKHPNWTNKQDNRDLESAQSLNRMEYIV
As to B2, the “effect on Hes5 expression” value in assay [1] (DLL added before Jagged in the first 3 days) is “enhance Hes5 expression”. For the same molecule, the “Hes5 expression relative to control” value in assay [1] (ligand added at day 1) was 94.5 % of the control. Further, the “cell number, mean ratio relative to control” value came out at 1.14 in the assay with NSCs [2] (Jagged present) and 1.08 with NSCs [2] (Jagged with DLL also added). In addition, in the assay on NSCs [3], the “cell number relative to control” value is recorded as 111.0 % of the control.
